# Test results taken from the nanobody polyreactivity screen of Harvey et al. (2022).
# Test: yeast display, Sf9 membrane polyspecificity reagent, FACS + sequencing; frameworks hold sequencing errors
# In short: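 A nanobody's polyreactivity label depends on the gate it was sorted from. Yeast display cells were stained with 10% biotinylated, detergent-solubilized Sf9 membrane reagent for 1 hour at 4 °C, enriched on streptavidin microbeads and sorted by FACS. The low and high (top ~1%) gates were set on anti-HA fluorescence for expression and streptavidin fluorescence for reagent binding.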
row,Sequence,polyreactivity (PSR sort gate)
1,QVQLVESGGGLVQAGGSLRLSCAASGRTFFSYAMGWYRQAPGKERELVAAISRRGSSTYYADSVKGRFTISRDNAKNTVYLQMNSLKPEDTAVYYCAADVVRGSRYNRYGYWGQGTQVTVSS,high polyreactivity
2,QVQLVESGGGLVQAGGSLRLSCAASGRTFFSYAMGWYRQAPGKERELVAAISWSGGTTYYADSVKGRFTISRDNAKNTVYLQMNSLKPEDTAVYYCAAYVYQEGYRYYYWGQGTQVTVSS,high polyreactivity
3,QVQLVESGGGLVQAGGSLRLSCAASGRTFFTYAMGWYRQAPGKERELVASITRSGVSTYYADSVKGRFTISRDNAKNTVYFQMNSLKPEDTAVYYCNTRYPYYWPIYGYWGQGTQVTVSS,high polyreactivity
4,QVQLVESGGGLVQAGGSLRLSCAASGRTFFVNAMGWYRQAPGKERELVATITFSGDSTYYADSVKGRFSISRDNAKNTVYLQMNSLKPEDTAVYYCAAYQGQKGYDYWGQGTQVTVSS,high polyreactivity
5,QVQLVESGGGLVQAGGSLRLSCAASGRTFFWNDMGWYRPAPGKERELVAAITWSGGSTYYADSVKGRFTISRDNAKNTVYLQMNSLKPEDTAVYYCDAVVSDYVWRYEYWGQGTQVTVSS,low polyreactivity
6,QVQLVESGGGLVQAGGSLRLSCAASGRTFFYYAMGWYRQAPGKERELVAAISTNGGSTYYADSVKGRFTISRDNAKNTVYLQMNSLKPEDTAVYYCNTYATPHRSGGGLGGHYYWGQGTQVTVSS,low polyreactivity
7,QVQLVESGGGLVQAGGSLRLSCAASGRTFFYYSMGWYIQAPGKEREFVSGISKSGSSTYYADSVKGRFTISRDNPKNTVYLQLISLKPEDTADSYCAAVSKRGAGGRRTEYWGQGTQVTVSA,high polyreactivity
8,QVQLVESGGGLVQAGGSLRLSCAASGRTFFYYTMGWYRQAPGKERELVAAITGSGTRTYYADSVKGRFTISRDNAKNTVYYQMNSLKPEDTAVYYCAAGYSDFSGQQVYYWGQGTQVTVSS,high polyreactivity
9,QVQLVESGGGLVQAGGSLRLSCAASGRTFGAYAMGWYRQAPGTERELVAAISSSGGSTYYADSVKGRFTISRDNAKNTVYLQMNSLKPEDTAVYYCAKGWHRGVGFGYWGQGTQVTVSS,high polyreactivity
10,QVQLVESGGGLVQAGGSLRLSCAASGRTFGDYAMGWYRQAPGKERELVAAISGTGGSTYYADSVKGRFTISRDNAKNTVYLQMNSLKPEDTAVYYCAARLKYIRFYYWGQGTQVTVSS,high polyreactivity
11,QVQLVESGGGLVQAGGSLRLSCAASGRTFGDYAMGWYRQAPGKERELVAAISSSGGRTYYADSVKGRFTISRDNAKNTVYLQMNSLKPEDTAVYYCATDYLYVYGFEYYYWGQGTQVTVSS,high polyreactivity
12,QVQLVESGGGLVQAGGSLRLSCAASGRTFGFNVMGWYRQAPGKERELVAAISRSGGSTYYADSVKGRFTISRDNAKNTVYLQMNRLKPEDTAVYYCNKRYVHRYGYWGPGTQVTVSS,low polyreactivity
13,QVQLVESGGGLVQAGGSLRLSCAASGRTFGFNVMGWYRQAPGKERELVAAISWSGGSTYYADSVKGRFTISRDNAKNTVYLQLNSLKPADTAVYYCNKRYVHRYGYWGQGTQVTVSS,low polyreactivity
14,QVQLVESGGGLVQAGGSLRLSCAASGRTFGFYDMGWYRQAPGKERELVAAIRGSIGYTYYADSVKGRITISRDNAKNTVYLQMTSLKPEDTAVYYCAKAIRYPAAKFYWGQGSQVTVSS,high polyreactivity
15,QVQLVESGGGLVQAGGSLRLSCAASGRTFGGNAMGWNRHAPGKERELVAGINISGGSTNYADSVKGRYTISRDNAKNTVYLQMNSLKPEDSAVYYCNADTAVYAWDDDYWGQGTQVTVSS,low polyreactivity
16,QVQLVESGGGLVQAGGSLRLSCAASGRTFGGNAMGWYRQAPGKERELVAAISRSGGRTYYADSVKGRFTISRDNAKNTVYLQMNSLKPEDTAVYYCAAKYQYTQYDYWGQGTQVTVSS,high polyreactivity
17,QVQLVESGGGLVQAGGSLRLSCAASGRTFGGNSMGWYRQAPAKERELVAAISRGGSTKYADSVKGRFTISRDNAKNTVYLQMNSLKPEDTAVYYCAASPKFHYDYWGQGTQVTVSS,low polyreactivity
18,QVQLVESGGGLVQAGGSLRLSCAASGRTFGGYAMGWYRQAPGKERELVAAIRSRGGRTYYADSVKGRFTISRDNAKNTVYLQMNSLKPEDTAVYYCATYGNKWGEDYWGQGTQVTVSS,high polyreactivity
19,QVQLVESGGGLVQAGGSLRLSCAASGRTFGGYAMGWYRQAPGKETQLVATITSGGSTYYADSVKGRFTISRDNAKNTVYLQMTSLKPEDTAVYYCAADTYFETSTRAIPSNDYWGQGTQVTVSS,low polyreactivity
20,QVQLVESGGGLVQAGGSLRLSCAASGRTFGGYDMGWYRQAPGKERELVAAISSGGRTYYADSVKGRFTISRDNAKNSVYLQMNSLKPEDTAVYYCAAKYRKWPIDYWGQGTQVTVSS,high polyreactivity
21,QVQLVESGGGLVQAGGSLRLSCAASGRTFGGYTMGWYRQATGKEMELVAAITGSGSNTYYADSVKGRFTISRDNAKNTVYLQMNSLKPEDTAVYYCAAPYSYRTWYPYGYWGQGTQVTVSS,high polyreactivity

row,Sequence,polyreactivity (PSR sort gate)
1,QVQLVESGGGLVQAGGSLRLSCAASGRTFGGYVMGWYRQAPGKERELVATITYSGGSTHYADSVKGRFTISRDNAKNTVYLQINSLKPEDTAVYYCARRRSYRYPSEYNYWGQGTQVTVSS,high polyreactivity
2,QVQLVESGGGLVQAGGSLRLSCAASGRTFGINAMGWYRQAPGKDRELVAAIRTGGSTYYADSVKGRFTISRDNAMNTVYLQMNSLKPEDTAVYYCAAKAYRRYTIPPYGYWGQGTQVTVSS,high polyreactivity
3,QVQLVESGGGLVQAGGSLRLSCAASGRTFGINAMGWYRQAPGKERELVAVISFADGGTYYADSVKGRFTISRDNAKNTVYLQMNSLKPEDTAVYYCATDYQSTSVWGGHFVINPYDYWGLGTQVTVSS,low polyreactivity
4,QVQLVESGGGLVQAGGSLRLSCAASGRTFGINAMGWYRQAPGKETELVAVISFGDGGTYYADSVKGRFTISRDNAKNTVYLQMNSLTPEDTAVYYCATDYQSTSVWGGHFVINPYDYWGQGTQVTVSS,low polyreactivity
5,QVQLVESGGGLVQAGGSLRLSCAASGRTFGIYAMGWYRQAPGKERELVAAISRGGNTYADSVKGRFTISRDNAKNSVYLQMNSLKPEDTAVYYCAADRRYRPGDYWGQGTQVTVSS,high polyreactivity
6,QVQLVESGGGLVQAGGSLRLSCAASGRTFGIYAMGWYRQAPGKERELVASISWSGGRTYYADSVKGRFTISRDNAKNTVYLQMNSLKPEDTAVYYCAAYGVYYPRSWQYFDWYGYWGQGTQVTVSS,high polyreactivity
7,QVQLVESGGGLVQAGGSLRLSCAASGRTFGKNAMGWYRQAPGKERELVAAISGSGGSTYYADSVKGRFTISRDNAKNTVSLQMNSLKPEDTADYYCAKSYYGKYYPSDYWGQGTQVTVSS,low polyreactivity
8,QVQLVESGGGLVQAGGSLRLSCAASGRTFGKYAMGWYRQAPGKERELVAAITTRVVITYYADSVKGRFTISRDTAKNTVYLQMNSLKPEDTAVYYCAADPEKIYRPFNHYYYWGQGTQVTVSS,low polyreactivity
9,QVQLVESGGGLVQAGGSLRLSCAASGRTFGKYAMGWYRQAPRKEREFFAAISRSGGNTYYADTVKGRFTISRDNAKNTVYLQMTSLIPEDTAVYYCARGLSTYVLSHGLEYRTYFYWGQGTQVTVSS,high polyreactivity
10,QVQLVESGGGLVQAGGSLRLSCAASGRTFGKYAMGWYSQAPGKERELVAAISSGGTTYYADSVKGRFTISRDNAKNTVYLQMNSVIPEDTAVYYCAADPRYPYNYWGQGTQVTVSS,low polyreactivity
11,QVQLVESGGGLVQAGGSLRLSCAASGRTFGLNAMGWYRQAPGKERELVAAITYSGGSTYYADSVKGRFTISRDNAKNTVYLQMNSLKPEDTAVYYCAKEVQTYWYHYYYWGQGTQVTVSS,high polyreactivity
12,QVQLVESGGGLVQAGGSLRLSCAASGRTFGLNAMGWYRQAPGKERELVAVITSSGGSTYYADSVKGRFTISRDNAKNTVYLQMNSLKPEDTAVYYCAARPPYTDSSPGERTYDYWGQGTQVTVSS,low polyreactivity
13,QVQLVESGGGLVQAGGSLRLSCAASGRTFGLNVMGWYRQAPGKERELVATISGVGSTNYADSVKGRFTISRDNAKNTVYLQMNSLKPEDTAVYYCDKDPHVGRWWDLYSPYYSWGQGTQVTVSS,low polyreactivity
14,QVQLVESGGGLVQAGGSLRLSCAASGRTFGLNVMGWYRQAPGKERELVATISWSGGTTYYADSVKGRFTISRDYAKNTVYLQMNSLKPEDTAVYYCNRQVTWYPTGGFWGQGTQVTVSS,low polyreactivity
15,QVQLVESGGGLVQAGGSLRLSCAASGRTFGLYAMGWYRQAPGKERELVAAISSGDSTNYADSVKGRFTISRDNAKNTVYLQMNSLKPEDTAVYYCAAAQQRWWQWYYYWGQGTQVTVSS,high polyreactivity
16,QVQLVESGGGLVQAGGSLRLSCAASGRTFGLYAMGWYRQAPGKERELVAAISYSGGRTYYADSVKGRFTISRDNAKKTVYLQMNILKPEDTAVYYCNKAWFRYYYYRFDYWGLGTQVTVSS,high polyreactivity
17,QVQLVESGGGLVQAGGSLRLSCAASGRTFGPNVMGWYRQAPGKERELVAAITYSSASTYYADSVKGRFTISRDNAKNTVYLQMNSLKPEDTAVYYCAARDRYYFGGMYYWGQGTQVTVSS,low polyreactivity
18,QVQLVESGGGLVQAGGSLRLSCAASGRTFGPYAMGWSRQAPGKEREFVAAISYSGGSTYYADSVKGRFTISRDNAKNTVYFQITSLKPEDTAVYYCAVDIDSNSGTRDYWGQGTQVTVSS,low polyreactivity
19,QVQLVESGGGLVQAGGSLRLSCAASGRTFGPYAMGWYRQAPGKERELVAAIRYIDDSTFYADSVKGRFTISRDNAKNTVYLQMNSLKPEDTAVYYCAAQRRVVGRHGLSLIRYDYWGQGTQVTVSS,low polyreactivity
20,QVQLVESGGGLVQAGGSLRLSCAASGRTFGPYAMGWYRQAPGKERELVAAITDTGSGTYYADSVKGRFTISRDNAKNTVYIQMNSLKPEDTAVFYCNANYLSWYRYKYNYWGQGTQVTVSS,low polyreactivity
